Assay results published in patent US20200247894A1 (Regeneron, published 2020).

B1: H4H12857P (antibody, human IgG4 S228P, kappa, V domains shown)
VH: EVQLVESGGGVVRPGGSLRLSCAASGFTFDDFDMSWVRQGPGKGLEWVSGINWHGSSTGYADSVKGRFTISRDNAKNSLYLQMSSLRAEDTALYHCVRGGTIVGATTPLDYWGQGTLVTVSS
VL: DIQMTQSPSSLSASVGDRVTMTCRASRTISSYLSWYQQKSGKVPNLLIFGASSLQSGVPSRFSASGSGTDFTLIISSLQPEDFATYYCQQSYSSPLTFGGGTKVEIKR
notes: human IgG4; also called REGN9432
B2: H4H12927P2 (antibody, human IgG4 S228P, kappa, V domains shown)
VH: EVQLVESGGGVVRPGGSLRLSCATSGFTFDDYGMSWVRQVPGKGLEWVSSVNRNGGTTDYADSVKGRFTISRDNAKRSLFLQMNSLRAEDTALYHCATGELFFDYWGQGTLVTVSS
VL: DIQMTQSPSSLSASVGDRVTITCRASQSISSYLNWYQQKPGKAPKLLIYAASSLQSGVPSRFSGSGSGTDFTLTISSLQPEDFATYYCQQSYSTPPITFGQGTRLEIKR
notes: fully human anti-IL2Rgamma mAb, human IgG4 Fc
B3: H4H12857P (antibody, human IgG4 S228P, kappa, V domains shown)
VH: B1 VH
VL: B1 VL
notes: fully human anti-IL2Rgamma mAb, human IgG4 Fc; also called REGN9432
B4: H4H12859P (antibody, human IgG4 S228P, kappa, V domains shown)
VH: QVQLVQSGAEVKKPGASVRVSCKASGYTFTDYDIHWVRQAPGHGLEWMGWINPNSGGTNYAQKFQGRVTMTRDTSISTVYMDLSRLRSDDTAVYYCARADYSSSYYYYGMDVWGQGTTVTVSS
VL: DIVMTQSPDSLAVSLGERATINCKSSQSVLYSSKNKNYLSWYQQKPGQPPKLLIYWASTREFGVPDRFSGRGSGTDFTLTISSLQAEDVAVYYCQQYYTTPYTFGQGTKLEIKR
notes: as for B2
B5: H4H12857P (antibody, human IgG4 S228P, kappa, V domains shown)
VH: B1 VH
VL: B1 VL
notes: fully human anti-IL2Rg antibody, human IgG4; also called REGN9432
B6: H4H13538P (antibody, human IgG4 S228P, kappa, V domains shown)
VH: EVQLVESGGGLVQPGGSLGLSCAASGFTFSNYAMSWVRQAPGKGLEWVSAVSGGGGGTYYADSVKGRFTISRDNSKNTVLLQMNSLRAEDTAVYYCARGRTGGLDYWGPGTLVTVSS
VL: DVVMTQSPLSLPVIFGQPASISCRSSQSLVDSDGNTYLNWLQQRPGQSPRRLIYEVSNRDSGVPDRFSGSGSGTDFTLTISRVEAEDVGIYYCMQGTRWPPTFGGGTKVEIKR
notes: fully human anti-IL2Rg antibody, human IgG4
B7: H4H13541P (antibody, human IgG4 S228P, kappa, V domains shown)
VH: EVQLVESGGGVVRPGGSLRLSCAASGFIFDDYDMSWVRQPPGRGLEWVSGIDWFGGTRGYADSMKGRFTISRDNAKNSLYLQMNSLRVEDTAFYYCARGGAIVGAVTPFDYWGQGTLVTVSS
VL: DIQMTQSPSSLSASVGNRVTLSCRASQSINTYLSWYQQRPGKAPKLLIYAASSLQSGVPSRFSGSGAGTDFTLTISSLQPEDFATYYCQQSYSAPLTFGGGTKVEIKR
notes: as for B6
B8: H4H13544P2 (antibody, human IgG4 S228P, kappa, V domains shown)
VH: QLQLQESGPGLVKPSETLSLTCTVSGGSISIKNYYWGWIRQPPGKGLEWIGSIYYSGTTYYNPSLKSRVTISVDTSKNQFSLKLSSVTAADTAVYHCARHGYSYGHGWFDPWGQGTLVTVSS
VL: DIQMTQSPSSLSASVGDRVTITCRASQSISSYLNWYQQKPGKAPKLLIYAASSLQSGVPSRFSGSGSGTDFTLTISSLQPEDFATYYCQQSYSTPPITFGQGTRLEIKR
notes: as for B6
B9: H4H13545P2 (antibody, human IgG4 S228P, kappa, V domains shown)
VH: QVQLQQSGPGLVKPSQTLSLTCDISGDSVSSNIATWNWIRQSPSRGLEWLGRTYYRSKWYKDYAVSVKSRITINPDTSKNQFSLQVNSVTPEDTAVYYCARMTGPRYYFEYWGQGTLVTVSS
VL: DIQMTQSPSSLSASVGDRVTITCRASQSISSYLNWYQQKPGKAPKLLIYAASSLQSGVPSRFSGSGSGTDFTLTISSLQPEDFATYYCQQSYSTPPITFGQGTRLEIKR
notes: as for B6

What was measured:
[1] = molecular target: T1, human IL2Rγ (endogenously expressed on cells) (human, UniProt P31785 23-369); test: cell-based or functional assay
T1 sequence (looked up): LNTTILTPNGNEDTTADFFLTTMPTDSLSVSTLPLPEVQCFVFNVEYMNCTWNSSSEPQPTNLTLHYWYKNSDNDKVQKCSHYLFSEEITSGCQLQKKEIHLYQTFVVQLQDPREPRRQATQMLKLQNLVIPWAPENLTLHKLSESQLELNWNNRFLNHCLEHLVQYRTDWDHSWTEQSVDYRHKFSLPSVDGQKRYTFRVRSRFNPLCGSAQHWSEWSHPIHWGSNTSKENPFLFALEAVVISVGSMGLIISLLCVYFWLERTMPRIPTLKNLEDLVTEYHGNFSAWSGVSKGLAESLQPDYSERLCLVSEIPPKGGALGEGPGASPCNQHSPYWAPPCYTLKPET

[2] = molecular target: T2, D1 domain of human IL-2Rγ extracellular domain expressed with a C-terminal myc-myc-hexahistidine tag (human); test: SPR, mAb captured on anti-hFc, 25 C
T2 construct: also called human IL2Rγ domain 1
T2 chain: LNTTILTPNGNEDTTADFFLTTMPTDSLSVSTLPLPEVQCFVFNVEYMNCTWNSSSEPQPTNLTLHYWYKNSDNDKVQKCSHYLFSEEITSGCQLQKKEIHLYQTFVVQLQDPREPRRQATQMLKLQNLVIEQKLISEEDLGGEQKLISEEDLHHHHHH
Method: (§1) Equilibrium dissociation constants (KD values) for IL-2Rγ binding to purified anti-IL2Rγ monoclonal antibodies were determined using a Biacore 4000 instrument equipped with a real-time surface plasmon resonance biosensor. All binding studies were performed in 10 mM HEPES, 150 mM NaCl, 3 mM EDTA, and 0.05% v/v Surfactant Tween-20, pH 7.4 (HBS-ET) running buffer at 25° C. and 37° C. The Biacore sensor surface was first derivatized by amine coupling with a monoclonal mouse anti-human Fc antibody (GE, # BR-1008-39) to capture anti-IL2Rγ monoclonal antibodies.
(§2) The dissociation of monoclonal antibody bound IL2Rγ reagents were monitored for 8-10 minutes in HBS-ET running buffer. Kinetic association (kₐ) and dissociation (kd) rate constants were determined by fitting the real-time sensorgrams to a 1:1 binding model using Scrubber 2.0c curve fitting software. Binding dissociation equilibrium constants (KD) and dissociative half-lives (t_{1/2}) were calculated from the kinetic rate constants as: […]

[3] = molecular target: T2, D1 domain of human IL-2Rγ extracellular …; test: SPR, mAb captured on anti-hFc, 37 C
Method: as §1, §2

[4] = molecular target: T3, Mouse IL2Rγ extracellular domain expressed with a C-terminal myc-myc-hexahistidine tag (mouse); test: SPR Biacore 4000, anti-hFc-captured mAb, 25 C
T3 construct: whole entry is the tagged construct; also called mIL-2Rg-MMH
T3 chain: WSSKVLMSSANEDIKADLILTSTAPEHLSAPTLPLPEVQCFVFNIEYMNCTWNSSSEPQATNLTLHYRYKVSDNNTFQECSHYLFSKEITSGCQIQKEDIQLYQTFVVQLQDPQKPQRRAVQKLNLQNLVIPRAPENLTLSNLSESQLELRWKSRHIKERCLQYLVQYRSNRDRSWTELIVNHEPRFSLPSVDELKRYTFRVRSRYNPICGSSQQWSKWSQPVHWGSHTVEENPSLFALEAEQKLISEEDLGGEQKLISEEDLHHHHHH
Method: as §1, §2

[5] = molecular target: T4, Rat IL2Rγ extracellular domain expressed with a C-terminal myc-myc-hexahistidine tag (rat); test: SPR Biacore 4000, anti-hFc-captured mAb, 25 C
T4 construct: whole entry is the tagged construct; also called rIL-2Rg-MMH; rat IL-2Rg-MMH
T4 chain: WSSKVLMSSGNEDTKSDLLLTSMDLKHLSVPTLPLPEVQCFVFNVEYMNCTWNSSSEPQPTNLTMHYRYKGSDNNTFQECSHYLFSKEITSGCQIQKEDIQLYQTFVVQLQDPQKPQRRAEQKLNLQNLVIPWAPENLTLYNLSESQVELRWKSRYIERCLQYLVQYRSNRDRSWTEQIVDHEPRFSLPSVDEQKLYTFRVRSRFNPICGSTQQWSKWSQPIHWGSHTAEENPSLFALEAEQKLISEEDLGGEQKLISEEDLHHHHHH
Method: as §1, §2

[6] = molecular target: T3, Mouse IL2Rγ extracellular domain …; test: SPR Biacore 4000, anti-hFc-captured mAb, 37 C
Method: as §1, §2

[7] = molecular target: T4, Rat IL2Rγ extracellular domain …; test: SPR Biacore 4000, anti-hFc-captured mAb, 37 C
Method: as §1, §2

[8] = molecular target: T5, Macaca fascicularis IL2Rγ extracellular domain expressed with a C-terminal myc-myc-hexahistidine tag (Macaca fascicularis); test: SPR Biacore 4000, anti-hFc-captured mAb, 37 C
T5 construct: whole entry is the tagged construct; also called mfIL-2Rg-MMH
T5 chain: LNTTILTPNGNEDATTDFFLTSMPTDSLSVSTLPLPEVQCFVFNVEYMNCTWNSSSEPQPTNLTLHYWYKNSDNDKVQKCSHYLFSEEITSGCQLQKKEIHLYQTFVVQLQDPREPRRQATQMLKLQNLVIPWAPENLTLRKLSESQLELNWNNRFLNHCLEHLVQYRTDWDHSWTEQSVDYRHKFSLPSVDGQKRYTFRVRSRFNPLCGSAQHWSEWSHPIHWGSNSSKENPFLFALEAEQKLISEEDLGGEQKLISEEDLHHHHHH
Method: as §1, §2

[9] = molecular target: T6, mouse IL-2Rγ endogenously expressed on MC/9 cells (mouse, UniProt P34902 23-369); test: flow cytometry, 10 ug/ml antibody, MC/9 cells (endogenous mouse IL-2Rg)
T6 construct: whole, on cells
T6 sequence (looked up): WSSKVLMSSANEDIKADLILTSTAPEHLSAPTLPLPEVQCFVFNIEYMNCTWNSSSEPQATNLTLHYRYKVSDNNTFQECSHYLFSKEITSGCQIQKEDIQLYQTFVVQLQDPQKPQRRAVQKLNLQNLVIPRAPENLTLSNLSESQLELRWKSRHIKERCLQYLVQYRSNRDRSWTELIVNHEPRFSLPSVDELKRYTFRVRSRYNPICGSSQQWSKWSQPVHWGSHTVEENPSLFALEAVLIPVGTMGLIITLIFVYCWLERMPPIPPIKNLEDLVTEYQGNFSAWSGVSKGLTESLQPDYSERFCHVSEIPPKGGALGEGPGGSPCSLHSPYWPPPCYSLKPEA
Method: (§3) For flow cytometry analyses, the cells were pre-incubated with mouse IgG at 100 μg/ml for 15 minutes at room temperature (RT) to block the binding of the antibodies to Fc receptors. […] Cells were washed, fixed using BD CytoFix™ (BD biosciences, #554655) and analyzed on an IQue® (Intellicyt®) Flow Cytometer or Accuri Flow cytometer (BD). […] The results were analyzed using ForeCyt® (IntelliCyt®) software to determine the geometric means of fluorescence (MFI) for viable cells. Binding ratios were calculated by normalizing the MFI of the test sample by the MFI of the unstained sample.

[10] = molecular target: T7, human IL-2Rγ endogenously expressed on NK-92 and Jurkat cells (human, UniProt P31785 23-369); test: flow cytometry, 10 ug/ml antibody, NK-92 cells (endogenous human IL-2Rg)
T7 construct: whole, on cells; on cells it stands with the other receptor subunits of the cell line; also called IL-2Rg; CD132
T7 sequence (looked up): T1 sequence (looked up)
Method: as §3

| 100 nM Ag Bound [4] [RU] | binding result [4] | 100 nM Ag Bound [5] [RU] | binding result [5] | 100 nM Ag Bound [6] [RU] | 100 nM Ag Bound [7] [RU] | Binding Ratio (Sample over unstained MFIs) [10] | Raw MFI [10] [MFI] | further results | Binder |
| --- | --- | --- | --- | --- | --- | --- | --- | --- | --- |
|  |  |  |  |  |  |  |  | IC50; IL-2 30 pM; NK92/hIL7R/STAT3-luc [1]: > 1e-07 M; IC50; IL-4 250 pM; Ramos.2G6.4C10/STAT3-luc [1]: 3.8e-08 M; IC50; IL-7 50 pM; NK92/hIL7R/STAT3-luc [1]: 1.6e-08 M; IC50; IL-9 20 pM; NK92/hIL7R/STAT3-luc [1]: > 1e-07 M; IC50; IL-15 60 pM; NK92/hIL7R/STAT3-luc [1]: > 1e-07 M; Max Inhibition (%); IL-2 30 pM; NK92/hIL7R/STAT3-luc [1]: 44%; Max Inhibition (%); IL-4 250 pM; Ramos.2G6.4C10/STAT3-luc [1]: 96%; Max Inhibition (%); IL-7 50 pM; NK92/hIL7R/STAT3-luc [1]: 94%; Max Inhibition (%); IL-9 20 pM; NK92/hIL7R/STAT3-luc [1]: 83%; Max Inhibition (%); IL-15 60 pM; NK92/hIL7R/STAT3-luc [1]: 78%; 100 nM Ag Bound [2]: 0 RU; 100 nM Ag Bound [3]: 1 RU; binding result [3]: no binding (tested: 100 nM) | B1 |
| 1 | no binding (tested: 100 nM) | 2 | no binding (tested: 100 nM) | 1 | 1 |  |  |  | B2 |
| 5 | no binding (tested: 100 nM) | 1 | no binding (tested: 100 nM) | 1 | 1 |  |  |  | B3 |
| 2 | no binding (tested: 100 nM) | 2 | no binding (tested: 100 nM) | 0 | 1 |  |  | 100 nM Ag Bound [8]: 10 RU; Kd [8]: 320 nM; koff [8]: 0.0201 s⁻¹; kon [8]: 62800 M⁻¹ s⁻¹; t1/2 [8]: 36 s | B4 |
|  |  |  |  |  |  |  |  | Binding Ratio (Sample over unstained MFIs) [9]: 1; Raw MFI [9]: 198 MFI | B5 |
|  |  |  |  |  |  | 1 | 235 |  | B6 |
|  |  |  |  |  |  | 37 | 7050 |  | B7 |
|  |  |  |  |  |  | 24 | 4650 |  | B8 |
|  |  |  |  |  |  | 3 | 592 |  | B9 |
